Kd data for 1 molecule are collected here from PMC9321280 (Nature Communications, 2022).

In this test the target is T1, GFP-fused TcsH CROPs (residues 1832–2618), His-tagged (Paeniclostridium sordellii, UniProt M9ZTT7 1832-2618).
T1 construct: source: Escherichia coli (pET28a vector), purified as His-tagged protein
T1 sequence: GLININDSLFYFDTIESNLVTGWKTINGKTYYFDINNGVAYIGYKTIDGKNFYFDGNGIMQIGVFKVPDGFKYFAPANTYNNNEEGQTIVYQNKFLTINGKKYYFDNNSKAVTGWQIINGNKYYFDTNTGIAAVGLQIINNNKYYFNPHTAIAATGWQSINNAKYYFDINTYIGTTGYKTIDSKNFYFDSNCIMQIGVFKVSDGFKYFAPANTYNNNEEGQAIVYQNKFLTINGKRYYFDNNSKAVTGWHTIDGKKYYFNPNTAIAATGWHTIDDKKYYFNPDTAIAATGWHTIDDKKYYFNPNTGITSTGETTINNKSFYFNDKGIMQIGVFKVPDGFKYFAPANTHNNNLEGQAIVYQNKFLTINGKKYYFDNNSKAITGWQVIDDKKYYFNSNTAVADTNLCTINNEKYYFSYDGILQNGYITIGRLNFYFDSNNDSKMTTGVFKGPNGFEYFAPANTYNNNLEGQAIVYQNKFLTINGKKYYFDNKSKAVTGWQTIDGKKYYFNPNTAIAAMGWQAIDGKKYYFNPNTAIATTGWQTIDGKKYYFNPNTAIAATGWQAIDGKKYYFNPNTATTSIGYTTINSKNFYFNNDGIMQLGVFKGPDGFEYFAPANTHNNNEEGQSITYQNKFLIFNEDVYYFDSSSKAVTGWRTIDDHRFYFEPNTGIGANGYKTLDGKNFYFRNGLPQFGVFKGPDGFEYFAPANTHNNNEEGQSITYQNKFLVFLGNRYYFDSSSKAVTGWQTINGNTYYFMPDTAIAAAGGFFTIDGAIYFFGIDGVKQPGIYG
Briefly: BLI. The conditions noted are these: both partners purified.

B1: Fc-tagged TMPRSS2^106-492/[change] (ectodomain of human TMPRSS2 with [change]) (Fc fusion)
chain: WKFMGSKCSNSGIECDSSGTCINPSNWCDGVSHCPGGEDENRCVRLYGPNFILQVYSSQRKSWHPVCQDDWNENYGRAACRDMGYKNNFYSSQGIVDDSGSTSFMKLNTSAGNVDIYKKLYHSDACSSKAVVSLRCIACGVNLNSSRQSQIVGGESALPGAWPWQVSLHVQNVHVCGGSIITPEWIVTAAHCVEKPLNNPWHWTAFAGILRQSFMFYGAGYQVEKVISHPNYDSKTKNNDIALMKLQKPLTFNDLVKPVCLPNPGMMLQPEQLCWISGWGATEEKGKTSEVLNAAKVLLIETQRCNSRYVYDNLITPAMICAGFLQGNVDSCQGDSGGPLVTSKNNIWWLIGDTSWGSGCAKAYRPGVYGNVMVFTDWIYRQMRADG
In general, Kd refers to a measure of binding affinity in units of concentration. A high value points to weaker binding. B1 registered a Kd of roughly 5.23 nM.
